Data: publication PMC10247848

Tests used:
[1] = Pi release from G6P in HeLa lysates, 24 h; details: glycan lost; control: wild type
[2] = Western blot, total hG6Pase-α in HeLa lysates, 24 h; details: glycan lost; control: wild type

B1: human glucose-6-phosphatase-α (hG6Pase-α): N96A (protein)
parent chain: MEEGMNVLHDFGIQSTHYLQVNYQDSQDWFILVSVIADLRNAFYVLFPIWFHLQEAVGIKLLWVAVIGDWLNLVFKWILFGQRPYWWVLDTDYYSNTSVPLIKQFPVTCETGPGSPSGHAMGTAGVYYVMVTSTLSIFQGKIKPTYRFRCLNVILWLGFWAVQLNVCLSRIYLAAHFPHQVVAGVLSGIAVAETFSHIHSIYNASLKKYFLITFFLFSFAIGFYLLLKGLGVDLLWTLEKAQRWCEQPEWVHIDTTPFASLLKNLGTLFGLGLALNSSMYRESCKGKLSKWLPFRLSSIVASLVLLHVFDSLKPPSQVELVFYVLSFCKSAVVPLASVSVIPYCLAQVLGQPHKKSL
[1]
  enzymatic_activity, percent_of_wt: abolishes, 0.9 ± 0.8 vs 100 ± 21.6
[2]
  expression_or_secretion, percent_of_wt: no change, 109.0 ± 16.9 vs 100.0 ± 8.2
